# In PMC12395305 (2025):
# B1: αGFP-S54C (VHH)
# VHH: QVQLVESGGALVQPGGSLRLSCAASGFPVNRYSMRWYRQAPGKEREWVAGMSCAGDRSSYEDSVKGRFTISRDDARNTVYLQMNSLKPEDTAVYYCNVNVGFEYWGQGTQVTVSS
# B2: nanobody 24 (VHH)
# VHH: QVQLQESGGGSVQAGGSLRLSCAASGYTDSRYCMAWFRQAPGKEREWVARINSGRDITYYADSVKGRFTFSQDNAKNTVYLQMDSLEPEDTATYYCATDIPLRCRDIVAKGGDGFRYWGQGTQVTVSS
# Columns and labels:
# [1] = target: GFP-K140R; assay: SPR
# [2] = target: GFP-K131S; assay: SPR
# [3] = target: GFP-K162R; assay: SPR
# [4] = target: GFP-K41R; assay: SPR
# [5] = target: GFP-K166R; assay: SPR
# [6] = target: T1, green fluorescent protein (UniProt P42212 2-238 = GFP); assay: SPR
# [7] = target: T1, green fluorescent protein; assay: SPR; remark: listed apart in the source
# [8] = target: T2, beta-2 microglobulin (UniProt P61769 21-119); assay: BLI
# [9] = target: T2, beta-2 microglobulin; assay: BLI; remark: listed apart in the source
# T2 sequence (P61769 21-119): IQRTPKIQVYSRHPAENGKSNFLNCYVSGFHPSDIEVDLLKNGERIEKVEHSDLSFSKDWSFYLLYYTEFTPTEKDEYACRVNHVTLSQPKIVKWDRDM
Binder,Kd [1],koff [1],Kd [2],koff [2],Kd [3],koff [3],Kd [4],koff [4],Kd [5],koff [5],Kd [6],koff [7],Kd [8],koff [9]
B1,1.05 nM,0.000169 s⁻¹,1.16 nM,0.000168 s⁻¹,1.26 nM,0.000171 s⁻¹,1.16 nM,0.000174 s⁻¹,1.11 nM,0.000175 s⁻¹,1.11 nM,0.000188 s⁻¹,,
B2,,,,,,,,,,,,,105 nM,0.018 s⁻¹
